This passage reports ELISA reading results from patent publication US20240360436A1 (DDBIO, published 2024).

Positions count from the first letter of the chain named.

First the molecules themselves.
B1: DDBK003-2 (Fab, V domains shown)
VH: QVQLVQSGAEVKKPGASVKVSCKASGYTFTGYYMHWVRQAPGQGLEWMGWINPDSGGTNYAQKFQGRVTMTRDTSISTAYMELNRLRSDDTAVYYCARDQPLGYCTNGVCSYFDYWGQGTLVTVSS
VL: DIQMTQSPSSVSASVGDRVTITCRATQDIRPWLAWYQQRPGKAPQLLIYRTSTLQSGVPSRFSGSGSGTDFTLTISNLQPEDFATYYCQHAKIFPITFGQGTRLEIKR
notes: Light-chain replacement clone of Selicrelumab; also expressed as full-length antibody (KLC/IgG1)
B2: DDBK003-3 (Fab, V domains shown)
VH: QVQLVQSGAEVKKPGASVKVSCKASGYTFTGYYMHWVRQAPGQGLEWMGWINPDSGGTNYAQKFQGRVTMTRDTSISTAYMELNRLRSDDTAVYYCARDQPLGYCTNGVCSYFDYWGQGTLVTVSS
VL: DIQMTQSPSSVSASIGDRVTVTCRASQAIGSWVAWYQQKPGKVPKLLIYSASKIQSGVPSRFSGSGSGTDFTLTISSLQPEDFATYYCQQANSFPITFGQGTLLEIKR
notes: Light-chain replacement clone of Selicrelumab; also expressed as KLC/IgG1
B3: Selicrelumab (Fab, V domains shown)
VH: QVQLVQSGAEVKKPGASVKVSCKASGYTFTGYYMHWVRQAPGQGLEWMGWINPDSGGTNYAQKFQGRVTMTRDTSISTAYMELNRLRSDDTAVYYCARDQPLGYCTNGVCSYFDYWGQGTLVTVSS
VL: DIQMTQSPSSVSASVGDRVTITCRASQGIYSWLAWYQQKPGKAPNLLIYTASTLQSGVPSRFSGSGSGTDFTLTISSLQPEDFATYYCQQANIFPLTFGGGTKVEIKR
notes: Also expressed as full-length antibody; also called #1; Positive antibody
B4: DDBK003-12 (Fab, V domains shown)
VH: QVQLQESGPGLVKPSETLSLTCNVSGYSITRGYFWGWIRQPPGKGLEWIGSIYQSGAARYNPSLQSRVTLSVDTSKNQFSLKLTSVTAADTAVYYCARDAATQVRGSWYNGYYFDPWGQGTLVTVSS
VL: B3 VL
notes: Heavy-chain replacement clone of Selicrelumab; also expressed as KLC/IgG1
B5: DDBK003-13 (Fab, V domains shown)
VH: EVQLVQSGPGLVRPSETLSLTCSASGGSVSSASDLWGWIRQAPGKGLEWIGNIYYLGKTDYNPSLGGRVSITMDKSKNQFSLRLSSVTAADTAMYYCAKRSTLPMRGFFVSWGQGTTVTVSS
VL: B3 VL
notes: as for B4
B6: DDBK003-14 (Fab, V domains shown)
VH: QVQLVESGAEVKKPGSSVKVSCKASGGTFSASAISWVRQAPGQGLEWMGGIFPILGSANYAQKFQGRVTITADESTSTAYMELSSLRSEDTAVYYCARDLAGYNYGFFGYWGRGTLVTVSS
VL: B3 VL with Y30N, K42R, N45K, N92K, I93S
notes: Light- and heavy-chain double replacement clone of Selicrelumab; also expressed as KLC/IgG1
B7: DDBK003-16 (Fab, V domains shown)
VH: B6 VH
VL: B3 VL with Y30S, N45K, T50A, T53S, I93S, V104L
notes: as for B6

T1 sequence (P25942 21-193 limits assumed): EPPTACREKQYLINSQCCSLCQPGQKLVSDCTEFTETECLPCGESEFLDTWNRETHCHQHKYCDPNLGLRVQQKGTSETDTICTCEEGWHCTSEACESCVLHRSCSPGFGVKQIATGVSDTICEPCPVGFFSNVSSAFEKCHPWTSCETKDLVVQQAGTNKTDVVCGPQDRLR

This assay has as its target T1, CD40 antigen (biotin-label-free, AcroBio Cat #: CDO-H5253) (UniProt P25942 21-193).
T1 construct: Bought protein; A biotin-labeled form (CDO-H82E8) was used for panning only; also called CD40 antigens
Put plainly: ELISA, CD40 antigen coated, anti-flag-HRP, OD405. In general terms: ELISA stands for enzyme-linked immunosorbent assay.
Molecule B1 registered an ELISA reading of 3.15 OD405.
For B2 the value was 2.87 OD405; for B3, 2.92 OD405.
In turn, B4 showed an ELISA reading of 3.22 OD405.
For the molecule B5, the ELISA reading turned out to be 3.33 OD405.
Molecule B6 yielded an ELISA reading of 2.02 OD405.
B7 displayed an ELISA reading of 1.93 OD405.
